This series relates to Escherichia coli TOP10. Kind of series: shrunken log2 fold change of peptide-encoding DNA abundance (4.5 h post-induction vs induction); higher = less antimicrobial activity (less host growth inhibition). The note with it: time post-induction: 4.5 h; library: site-saturation at positions 5, 18, 19, 20.

The values below come from the supplement of paper PMC9112550, “Optimization of the antimicrobial peptide Bac7 by deep mutational scanning” (BMC Biology, 2022).
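Note: peptides expressed intracellularly from a pBAD plasmid library in pooled LB shake-flask culture, induced with 0.3% L-arabinose, DNA abundance read by NGS, three biological replicates, DESeq2 with apeglm shrinkage.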

Take RRIRTRPPRLPRPRPRPSKTPRP: the “shrunken log2 fold change” value turned out to be 0.0543.

With RRIRTRPPRLPRPRPRPAHYPRP, the “shrunken log2 fold change” value is -0.227.

On to RRIRRRPPRLPRPRPRPWMQPRP, for which the “shrunken log2 fold change” value was determined as 0.0811.

For RRIRLRPPRLPRPRPRPWVPPRP, the “shrunken log2 fold change” value is -0.569.

As for RRIRSRPPRLPRPRPRPVVEPRP, the “shrunken log2 fold change” value worked out at 0.13.

On to RRIRCRPPRLPRPRPRPIIPPRP, for which the “shrunken log2 fold change” value is -0.645.

As to RRIRKRPPRLPRPRPRPVCNPRP, the “shrunken log2 fold change” value is -0.148.

On to RRIRHRPPRLPRPRPRPYYQPRP, for which the “shrunken log2 fold change” value was -0.416.

As to RRIRFRPPRLPRPRPRPEMNPRP, the “shrunken log2 fold change” value was -0.253.

RRIRIRPPRLPRPRPRPCLYPRP: the “shrunken log2 fold change” value was -0.248.

For the sequence RRIRWRPPRLPRPRPRPHEDPRP, the “shrunken log2 fold change” value came to 0.185.

Regarding RRIRWRPPRLPRPRPRPQAAPRP, the “shrunken log2 fold change” value was 0.702.

Consider RRIRARPPRLPRPRPRPEIVPRP, for which the “shrunken log2 fold change” value was 0.553.

With RRIRQRPPRLPRPRPRPVCRPRP, the “shrunken log2 fold change” value stood at 0.198.

As for RRIRPRPPRLPRPRPRPFSCPRP, the “shrunken log2 fold change” value is -0.106.

Turning to RRIRKRPPRLPRPRPRPAHWPRP, the “shrunken log2 fold change” value amounted to 0.719.

On to RRIRRRPPRLPRPRPRPYYNPRP, for which the “shrunken log2 fold change” value was -0.807.

RRIRYRPPRLPRPRPRPAHIPRP: the “shrunken log2 fold change” value was -0.467.

RRIRSRPPRLPRPRPRPKDQPRP: the “shrunken log2 fold change” value is 0.232.

For the sequence RRIRPRPPRLPRPRPRPVSCPRP, the “shrunken log2 fold change” value is -0.095.

Turning to RRIRRRPPRLPRPRPRPQYWPRP, the “shrunken log2 fold change” value was -0.147.

Take RRIRGRPPRLPRPRPRPCQSPRP: the “shrunken log2 fold change” value was found to be 0.108.

For RRIRNRPPRLPRPRPRPKNEPRP, the “shrunken log2 fold change” value is -0.0366.

RRIRERPPRLPRPRPRPGWYPRP: the “shrunken log2 fold change” value is -0.0987.

In the case of RRIRTRPPRLPRPRPRPDWPPRP, the “shrunken log2 fold change” value was 0.135.

Take RRIRLRPPRLPRPRPRPTGMPRP: the “shrunken log2 fold change” value worked out at 0.056.

On to RRIRNRPPRLPRPRPRPCQTPRP, for which the “shrunken log2 fold change” value is -0.0964.

With RRIRFRPPRLPRPRPRPMLWPRP, the “shrunken log2 fold change” value turned out to be 0.165.

For the sequence RRIRPRPPRLPRPRPRPKLKPRP, the “shrunken log2 fold change” value was 0.105.

For the sequence RRIRGRPPRLPRPRPRPWQCPRP, the “shrunken log2 fold change” value came out at 0.0158.

As to RRIRMRPPRLPRPRPRPIENPRP, the “shrunken log2 fold change” value is -0.142.

Regarding RRIRLRPPRLPRPRPRPDSWPRP, the “shrunken log2 fold change” value is -0.139.

Turning to RRIRVRPPRLPRPRPRPMTGPRP, the “shrunken log2 fold change” value is -0.0967.

Turning to RRIRMRPPRLPRPRPRPWDIPRP, the “shrunken log2 fold change” value came out at 0.232.

For RRIRCRPPRLPRPRPRPTNTPRP, the “shrunken log2 fold change” value is -0.364.

Regarding RRIRRRPPRLPRPRPRPRHDPRP, the “shrunken log2 fold change” value stood at 0.0104.

As to RRIRPRPPRLPRPRPRPPMIPRP, the “shrunken log2 fold change” value was -0.425.

Take RRIRIRPPRLPRPRPRPARVPRP: the “shrunken log2 fold change” value was -0.0658.

For the sequence RRIRYRPPRLPRPRPRPKIAPRP, the “shrunken log2 fold change” value was -0.404.

For the sequence RRIRIRPPRLPRPRPRPANKPRP, the “shrunken log2 fold change” value is -0.222.

In the case of RRIRHRPPRLPRPRPRPEANPRP, the “shrunken log2 fold change” value stood at 0.00386.

As to RRIRMRPPRLPRPRPRPNWTPRP, the “shrunken log2 fold change” value amounted to 0.132.

For the sequence RRIRERPPRLPRPRPRPHRHPRP, the “shrunken log2 fold change” value is -0.18.

In the case of RRIRIRPPRLPRPRPRPYHNPRP, the “shrunken log2 fold change” value is -1.25.

Take RRIRYRPPRLPRPRPRPKKDPRP: the “shrunken log2 fold change” value is -0.719.

On to RRIRTRPPRLPRPRPRPETTPRP, for which the “shrunken log2 fold change” value was 0.285.

As to RRIRDRPPRLPRPRPRPCFSPRP, the “shrunken log2 fold change” value was -0.0275.

With RRIRLRPPRLPRPRPRPTKMPRP, the “shrunken log2 fold change” value amounted to 0.0743.

For the sequence RRIRKRPPRLPRPRPRPCVWPRP, the “shrunken log2 fold change” value was found to be 0.205.

As for RRIRRRPPRLPRPRPRPGRVPRP, the “shrunken log2 fold change” value was found to be 0.593.

For the sequence RRIRRRPPRLPRPRPRPEMMPRP, the “shrunken log2 fold change” value is 0.345.

Turning to RRIRERPPRLPRPRPRPYHTPRP, the “shrunken log2 fold change” value turned out to be 0.0711.

Consider RRIRCRPPRLPRPRPRPFHHPRP, for which the “shrunken log2 fold change” value was -0.00672.

With RRIRERPPRLPRPRPRPPHCPRP, the “shrunken log2 fold change” value was 0.118.

Take RRIRHRPPRLPRPRPRPKPPPRP: the “shrunken log2 fold change” value is 0.55.

Regarding RRIRRRPPRLPRPRPRPVKKPRP, the “shrunken log2 fold change” value is 0.0447.

For RRIRPRPPRLPRPRPRPFPMPRP, the “shrunken log2 fold change” value is -0.175.

Regarding RRIRYRPPRLPRPRPRPTWYPRP, the “shrunken log2 fold change” value is -0.168.

As to RRIRARPPRLPRPRPRPESNPRP, the “shrunken log2 fold change” value was 0.553.

As for RRIRKRPPRLPRPRPRPYFYPRP, the “shrunken log2 fold change” value was -0.274.

For the sequence RRIRFRPPRLPRPRPRPISGPRP, the “shrunken log2 fold change” value was 0.00212.

With RRIRCRPPRLPRPRPRPPIHPRP, the “shrunken log2 fold change” value was -0.248.

With RRIRGRPPRLPRPRPRPLTSPRP, the “shrunken log2 fold change” value is 0.167.

For the sequence RRIRRRPPRLPRPRPRPVCRPRP, the “shrunken log2 fold change” value was found to be 0.562.

For the sequence RRIRNRPPRLPRPRPRPVVHPRP, the “shrunken log2 fold change” value is -0.165.

On to RRIRHRPPRLPRPRPRPHMYPRP, for which the “shrunken log2 fold change” value is -0.0666.

Take RRIRCRPPRLPRPRPRPFGNPRP: the “shrunken log2 fold change” value was -0.365.

Regarding RRIRCRPPRLPRPRPRPSPQPRP, the “shrunken log2 fold change” value worked out at 0.445.

On to RRIRERPPRLPRPRPRPATIPRP, for which the “shrunken log2 fold change” value was -0.105.

For RRIRLRPPRLPRPRPRPDKPPRP, the “shrunken log2 fold change” value was -0.228.

In the case of RRIRDRPPRLPRPRPRPFGGPRP, the “shrunken log2 fold change” value is -0.0275.

On to RRIRYRPPRLPRPRPRPDVIPRP, for which the “shrunken log2 fold change” value is -0.0708.

For the sequence RRIRPRPPRLPRPRPRPPYKPRP, the “shrunken log2 fold change” value was -0.113.

In the case of RRIRIRPPRLPRPRPRPTDMPRP, the “shrunken log2 fold change” value was -0.385.

Consider RRIRPRPPRLPRPRPRPHKLPRP, for which the “shrunken log2 fold change” value is -0.109.

In the case of RRIRYRPPRLPRPRPRPRQEPRP, the “shrunken log2 fold change” value is -0.0183.

Consider RRIRIRPPRLPRPRPRPQMYPRP, for which the “shrunken log2 fold change” value is -0.211.

Regarding RRIRWRPPRLPRPRPRPRVLPRP, the “shrunken log2 fold change” value turned out to be 0.381.

For the sequence RRIRSRPPRLPRPRPRPPFLPRP, the “shrunken log2 fold change” value was -0.0588.

Regarding RRIRFRPPRLPRPRPRPCFQPRP, the “shrunken log2 fold change” value is -0.227.

For the sequence RRIRFRPPRLPRPRPRPAELPRP, the “shrunken log2 fold change” value was 0.281.

Take RRIRLRPPRLPRPRPRPVGLPRP: the “shrunken log2 fold change” value was 0.144.

Turning to RRIRRRPPRLPRPRPRPSVTPRP, the “shrunken log2 fold change” value was -0.041.

In the case of RRIRIRPPRLPRPRPRPYPDPRP, the “shrunken log2 fold change” value was -0.039.

As for RRIRWRPPRLPRPRPRPKVHPRP, the “shrunken log2 fold change” value was -0.136.

With RRIRSRPPRLPRPRPRPFFCPRP, the “shrunken log2 fold change” value is -0.11.

With RRIRKRPPRLPRPRPRPGYGPRP, the “shrunken log2 fold change” value came out at 0.13.

As to RRIRRRPPRLPRPRPRPCKYPRP, the “shrunken log2 fold change” value was -0.915.

With RRIRGRPPRLPRPRPRPFPIPRP, the “shrunken log2 fold change” value was found to be 0.21.

For RRIRFRPPRLPRPRPRPNNMPRP, the “shrunken log2 fold change” value is -0.699.

For RRIRPRPPRLPRPRPRPWYQPRP, the “shrunken log2 fold change” value is -0.0967.

On to RRIRIRPPRLPRPRPRPTYRPRP, for which the “shrunken log2 fold change” value was -0.0791.

As to RRIRTRPPRLPRPRPRPFLAPRP, the “shrunken log2 fold change” value was -0.0751.

As to RRIRHRPPRLPRPRPRPTAMPRP, the “shrunken log2 fold change” value stood at 0.148.

For RRIRDRPPRLPRPRPRPSCWPRP, the “shrunken log2 fold change” value stood at 0.585.

Turning to RRIRERPPRLPRPRPRPDKLPRP, the “shrunken log2 fold change” value was -1.81.

Consider RRIRHRPPRLPRPRPRPCHNPRP, for which the “shrunken log2 fold change” value is -0.261.

Consider RRIRFRPPRLPRPRPRPYGRPRP, for which the “shrunken log2 fold change” value was -0.0926.

As to RRIRPRPPRLPRPRPRPEVTPRP, the “shrunken log2 fold change” value turned out to be 0.198.

Turning to RRIRCRPPRLPRPRPRPQCWPRP, the “shrunken log2 fold change” value is 0.0604.

RRIRQRPPRLPRPRPRPPEGPRP: the “shrunken log2 fold change” value was determined as 0.228.

On to RRIRWRPPRLPRPRPRPFTIPRP, for which the “shrunken log2 fold change” value is -0.212.

Consider RRIRNRPPRLPRPRPRPCRMPRP, for which the “shrunken log2 fold change” value is -0.195.

As to RRIRERPPRLPRPRPRPKIMPRP, the “shrunken log2 fold change” value was -1.24.

For RRIRPRPPRLPRPRPRPNLDPRP, the “shrunken log2 fold change” value amounted to 0.109.

In the case of RRIRDRPPRLPRPRPRPWNSPRP, the “shrunken log2 fold change” value was -0.237.

RRIRPRPPRLPRPRPRPSNAPRP: the “shrunken log2 fold change” value was found to be 0.055.

Regarding RRIRIRPPRLPRPRPRPASHPRP, the “shrunken log2 fold change” value is -0.106.

As for RRIRWRPPRLPRPRPRPYYCPRP, the “shrunken log2 fold change” value is -0.00583.

With RRIRPRPPRLPRPRPRPSGHPRP, the “shrunken log2 fold change” value was -0.395.

Take RRIRMRPPRLPRPRPRPQTRPRP: the “shrunken log2 fold change” value is 1.05.

RRIRHRPPRLPRPRPRPNMSPRP: the “shrunken log2 fold change” value was -0.245.

As to RRIRRRPPRLPRPRPRPERCPRP, the “shrunken log2 fold change” value was 0.322.

For the sequence RRIRARPPRLPRPRPRPKDWPRP, the “shrunken log2 fold change” value was found to be 0.578.

For the sequence RRIRARPPRLPRPRPRPMISPRP, the “shrunken log2 fold change” value came out at 0.501.

As to RRIRHRPPRLPRPRPRPMHAPRP, the “shrunken log2 fold change” value was -9.3e-05.

Turning to RRIRCRPPRLPRPRPRPHLQPRP, the “shrunken log2 fold change” value was -0.319.

In the case of RRIRYRPPRLPRPRPRPCRSPRP, the “shrunken log2 fold change” value worked out at 0.00487.

RRIRCRPPRLPRPRPRPLKWPRP: the “shrunken log2 fold change” value was -0.0792.

With RRIRNRPPRLPRPRPRPIGHPRP, the “shrunken log2 fold change” value was -0.0117.

As to RRIRKRPPRLPRPRPRPDFMPRP, the “shrunken log2 fold change” value stood at 0.028.

Regarding RRIRQRPPRLPRPRPRPHPIPRP, the “shrunken log2 fold change” value is -0.133.

As for RRIRDRPPRLPRPRPRPNLWPRP, the “shrunken log2 fold change” value was -0.0934.

Consider RRIRKRPPRLPRPRPRPLKGPRP, for which the “shrunken log2 fold change” value is -0.022.

RRIRARPPRLPRPRPRPDDYPRP: the “shrunken log2 fold change” value is -0.0457.
